Source: patent publication US20210284724A1

Columns and labels:
Assay in all cases: alanine scan, flow cytometry on transfected cells
[1] = target: human CXCL13 F20A (human) (UniProt O43927)
[2] = target: human CXCL13 F25A (human) (UniProt O43927)
[3] = target: human CXCL13 P22A (human) (UniProt O43927)
[4] = target: human CXCL13 R24A (human) (UniProt O43927)
Sequence of human CXCL13 R24A (human) (O43927 23-109 R46A): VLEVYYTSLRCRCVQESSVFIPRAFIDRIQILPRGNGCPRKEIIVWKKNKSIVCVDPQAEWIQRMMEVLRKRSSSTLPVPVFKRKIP

Sequence of human CXCL13 F25A (human) (O43927 23-109 F47A): as the sequence (O43927 23-109 R46A) above, with A24R, F25A counted along it
Sequence of human CXCL13 P22A (human) (O43927 23-109 P44A): as the sequence (O43927 23-109 R46A) above, with P22A, A24R counted along it
Sequence of human CXCL13 F20A (human) (O43927 23-109 F42A): as the sequence (O43927 23-109 R46A) above, with F20A, A24R counted along it

In the case of Control Fab, the Binding reactivity (% WT) [1] is reported as 110 % WT, the Binding reactivity (% WT) [2] is reported as 127 % WT and the Binding reactivity (% WT) [3] is reported as 97.4 % WT. It also gave a Binding reactivity (% WT) [4] of 88 % WT.
